In US20200283507A1 (US Dept. of Health and Human Services, published 2020):

T1: Hu/NoV/GI.1/Norwalk/1968/U.S. VLP (human norovirus GI.1, UniProt Q83884 1-530 (Norovirus (strain entry), limits assumed))
T1 construct: mature; full-length VP1 (ORF2) assembled as virus-like particle in baculovirus/Sf9; also called Norwalk VLP; NV
T1 sequence (looked up): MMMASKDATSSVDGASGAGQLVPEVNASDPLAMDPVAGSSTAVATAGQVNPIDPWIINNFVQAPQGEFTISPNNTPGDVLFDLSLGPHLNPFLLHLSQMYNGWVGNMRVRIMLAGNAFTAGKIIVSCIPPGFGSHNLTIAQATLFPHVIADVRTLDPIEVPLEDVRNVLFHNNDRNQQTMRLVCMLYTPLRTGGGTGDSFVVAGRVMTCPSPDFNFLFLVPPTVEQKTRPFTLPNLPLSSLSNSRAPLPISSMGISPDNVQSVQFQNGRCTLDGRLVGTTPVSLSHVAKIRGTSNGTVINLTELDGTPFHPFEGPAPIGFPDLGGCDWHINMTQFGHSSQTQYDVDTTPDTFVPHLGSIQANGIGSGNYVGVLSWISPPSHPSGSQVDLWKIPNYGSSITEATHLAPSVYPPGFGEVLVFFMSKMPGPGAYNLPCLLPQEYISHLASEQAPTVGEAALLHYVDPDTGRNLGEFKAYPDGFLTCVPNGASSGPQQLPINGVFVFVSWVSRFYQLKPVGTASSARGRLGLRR


Key:
[1] = molecular target: T2, Hu/NoV/GI.1/P7-587/2007/Stromstad/Sweden VLP (human norovirus GI.1); assay: VLP ELISA
T2 construct: mature; baculovirus VLP; VP2 may be present; also called Norovirus 2007

[2] = molecular target: T2, Hu/NoV/GI.1/P7-587/2007/Stromstad/Sweden …; assay: cell-based or functional assay
[3] = molecular target: T3, Hu/NoV/GII.4/RockvilleD1/2012/U.S. VLP (human norovirus GII.4); assay: VLP ELISA
T3 construct: mature; baculovirus VLP; VP2 may be present

[4] = molecular target: T4, Hu/NoV/GII.4/MD2004/2004/U.S. VLP (human norovirus GII.4); assay: VLP ELISA
T4 construct: mature; baculovirus VLP; VP2 may be present; also called MD2004 VLP

[5] = molecular target: T5, Hu/NoV/GII.4/MD145-12/1997/U.S. VLP (human norovirus GII.4); assay: VLP ELISA
T5 construct: mature; baculovirus VLP; VP2 may be present

[6] = molecular target: T6, Hu/NoV/GII.4/HS-191/2001/U.S. VLP (human norovirus GII.4); assay: VLP ELISA
T6 construct: mature; baculovirus VLP; VP2 may be present

[7] = molecular target: T1, Hu/NoV/GI.1/Norwalk/1968/U.S. VLP; assay: VLP ELISA
[8] = molecular target: T1, Hu/NoV/GI.1/Norwalk/1968/U.S. VLP; assay: blockade ELISA: VLP binding to saliva Ly+
Protocol: (§1) For this assay saliva positive for Ly antigen collected from a secretor individual was used. Saliva was boiled (95° C.) for 10 minutes immediately after collection, centrifuged for 5 minutes at 13000×g and the supernatants stored at −20° C. until used. ELISA 96 well U bottom polyvinyl plates Dynatech (Nunc, Thermo, EEUU) were coated with 100 μl/well of a 1/400 saliva dilution in 50 μM carbonate-bicarbonate buffer, pH 9.6. The plate was incubated overnight at 37° C. in a wet atmosphere. In parallel, serial two-fold dilutions of VHH starting from 8 ug/ml were mixed with 1.5 ug/ml of NoV VLP Norwalk and MD145 and incubated for 1h at 37° C. After 6 washes and a blocking step with 5% dry milk/0.05% Tween₂₀-PBS, 50 ul of each VHH-VLP mixture was transferred to the reaction plate, in duplicate. The assay was developed using a specific polyclonal antiserum made in guinea pig (1:10,000) followed by a peroxidase labeled anti-guinea pig IgG (1:2,000) and ABTS/H₂O₂ as substrate chromogen (KPL), 100 μl per well. Absorbance at 405 nm was measured. Mean % control binding, EC50 and criteria for determination of a blockade VHH were calculated as described above.

[9] = molecular target: T1, Hu/NoV/GI.1/Norwalk/1968/U.S. VLP; assay: blockade ELISA: VLP binding to PGM type III
Protocol: (§2) Pig Gastric Mucin Type III (PGM) (Sigma Chemicals) was used as a substrate for NoV VLP antibody-blockade assay as previously described. Briefly, PGM was resuspended in PBS at 5 mg/ml and coated onto 96 well U bottom polyvinyl plates Dynatech (Nunc, Thermo, USA) at 10 μg/ml in PBS for 4 hours. Plates were then blocked ON at 4° C. in 5% dry milk in 0.05% Tween₂₀-PBS. […] One hundred μl of VLPs-VHH mix were transferred to the PGM coated plates and incubated for 1 hour. Bound VLPs were detected by specific hyperimmune sera made in guinea pig, followed by anti-guinea pig IgG-HRP (KLP). ABTS/H₂O₂ was used as chromogen/substrate solution. All incubations were performed at room temperature and absorbance at 405 nm was measured. Mean % control binding, EC50 and criteria for determination of a blockade VHH were calculated as described above.

[10] = molecular target: T7, Hu/NoV/GII.1/Hawaii/1971/U.S. VLP (human norovirus GII.1); assay: VLP ELISA
T7 construct: mature; baculovirus VLP; VP2 may be present

[11] = molecular target: T8, Hu/NoV/Snow Mountain/GII.2/U.S. VLP (human norovirus GII.2); assay: VLP ELISA
T8 construct: mature; baculovirus VLP; VP2 may be present

[12] = molecular target: T9, Hu/NoV/GII.2/Henryton/1971/U.S. VLP (human norovirus GII.2); assay: VLP ELISA
T9 construct: mature; baculovirus VLP; VP2 may be present

[13] = molecular target: T10, Hu/NoV/GII.3/CHDC4031/1988/U.S. VLP (human norovirus GII.3); assay: VLP ELISA
T10 construct: mature; baculovirus VLP; VP2 may be present

[14] = molecular target: T11, Hu/NoV/GII.4/CHDC4871/1977/U.S. VLP (human norovirus GII.4); assay: VLP ELISA
T11 construct: mature; baculovirus VLP; VP2 may be present

[15] = molecular target: T12, Hu/GII.6/Bethesda/2012/U.S. VLP (human norovirus GII.6); assay: VLP ELISA
T12 construct: mature; baculovirus VLP; VP2 may be present

[16] = molecular target: T13, Hu/NoV/GII.7/DC119/U.S. VLP (human norovirus GII.7); assay: VLP ELISA
T13 construct: mature; baculovirus VLP; VP2 may be present

[17] = molecular target: T4, Hu/NoV/GII.4/MD2004/2004/U.S. VLP; assay: cell-based or functional assay
[18] = molecular target: T5, Hu/NoV/GII.4/MD145-12/1997/U.S. VLP; assay: cell-based or functional assay
[19] = molecular target: T5, Hu/NoV/GII.4/MD145-12/1997/U.S. VLP; assay: blockade ELISA: VLP binding to saliva Ly+
Protocol: as §1

[20] = molecular target: T4, Hu/NoV/GII.4/MD2004/2004/U.S. VLP; assay: blockade ELISA: VLP binding to PGM type III
Protocol: as §2

[21] = molecular target: T1, Hu/NoV/GI.1/Norwalk/1968/U.S. VLP; assay: cell-based or functional assay
[22] = molecular target: T5, Hu/NoV/GII.4/MD145-12/1997/U.S. VLP; assay: blockade ELISA: VLP binding to synthetic HBGA H3

Binder | minimum concentration of VHH able to recognize 100 ng of VLP [1] | HAI titer, 0 Rh- RBC [2] | minimum concentration of VHH able to recognize 100 ng of VLP [3] | minimum concentration of VHH able to recognize 100 ng of VLP [4] | minimum concentration of VHH able to recognize 100 ng of VLP [5] | minimum concentration of VHH able to recognize 100 ng of VLP [6] | minimum concentration of VHH able to recognize 100 ng of VLP [7] | EC50 [9] | minimum concentration of VHH able to recognize 100 ng of VLP [14] | EC50 [19] | EC50 [20] | further results
VHH 8.1 (VHH, llama VHH, Norwalk library; pHEN6, C-terminal His6 tag) VHH: QVKLQESGGGLVQAGGSLRLSCAASGFTFATYAMAWYRQAPGKQRELVASISNFGSTAYGDSVKGRFTISRDNAKNTVYLEMNSLKSEDTAVYYCKRVRDVIGRPELWGQGTQVTVSS | 1 ng/well | 0.78 µg/mL | – | – | – | – | – | – | – | – | – | –
VHH 2.1 (VHH, llama VHH, MD2004 library; pHEN6, C-terminal His6 tag; also called clone 2.1) VHH: QVQLQESGGGLVQAGGSLRLSCAASGLTFSSYAMGWFHQAPGKEREFVAAINWSGRDTYYADSVKGRFTISRDNRKNTVYLQMNSLKPEDTAVYYCAAAEFFSSGDPLPGMDYWGKGTLVTVSS | – | – | 0.25 ng/well | 0.5 ng/well | 8 ng/well | 0.5 ng/well | – | – | – | – | – | –
VHH 9.8 (VHH, llama VHH, Norwalk library; His6 tag) VHH: QVKLQQSGGGLVQAGGSLRLSCAASGTFSRYAMGWFRQAPGKEREFVAAINWTGGSTYYADSVKGRFTISGDNAKNTVYLQMNSLKPGDTAVYYCAAEVHPGDYGLTYMQSQYEYDYWGQGTQVTVSS | – | – | – | – | – | – | 0.5 ng/well | 1.14 µg/mL | – | – | – | EC50 [8]: 1.72 µg/mL
VHH 19 (VHH, MD2004 library, subtractive biopanning; His6 tag; also called 19.1; clone 19) VHH: QVKLQQSGGGLVQPGGSLRLSCAASGFTFRNYAMSWVRQAPGKGLEWVSAIAAGGAVTKYADSVKGRFTISRDNARDTLYLQMNSLKPEDTAVYYCAKPRDFWYSPEFDFRGQGTQVTVSS | – | – | 2 ng/well | 2 ng/well | 4 ng/well | 1 ng/well | – | – | 1 ng/well | 1.3 µg/mL | 0.583 µg/mL | minimum concentration of VHH able to recognize 100 ng of VLP [10]: 1 ng/well; minimum concentration of VHH able to recognize 100 ng of VLP [11]: 2 ng/well; minimum concentration of VHH able to recognize 100 ng of VLP [12]: 2 ng/well; minimum concentration of VHH able to recognize 100 ng of VLP [13]: 0.5 ng/well; minimum concentration of VHH able to recognize 100 ng of VLP [15]: 2 ng/well; minimum concentration of VHH able to recognize 100 ng of VLP [16]: 1 ng/well; HAI titer, B Rh+ RBC [17]: 0.39 µg/mL; HAI titer, B Rh+ RBC [18]: 0.39 µg/mL
VHH 14.5 (VHH, llama VHH, Norwalk library; pHEN6, C-terminal His6 tag) VHH: DVQLQASGGGLVQAGGSLRLSCVASARTFSSYAMGWFRQAPGKEREFVAAISWSGASTDYADSVKGRFTISRDNAKKTVYLQMNTLKPEDTAVYYCAAHHITPTGSYYYSEPLPVDMVYDYWGQGTQVTVSS | 0.5 ng/well | 0.05 µg/mL | – | – | – | – | 0.5 ng/well | 0.351 µg/mL | – | – | – | HAI titer, 0 Rh- RBC [21]: 0.78 µg/mL; EC50 [8]: 1.56 µg/mL
VHH 16 (VHH, MD2004 library, subtractive biopanning; His6 tag; also called 16.1; clone 16) VHH: QVKLQQSGGGLVQPGGSLRLTCAASGFPFSTYAIRWVRRPPGKGLEWVSTIHPDFTTNYADSVSRRFTISRDNAKNTVYLQMNSLKPEDTAVYYCSRGVSGERGQGTQVTVSS | – | – | – | 0.5 ng/well | – | – | – | – | – | – | 0.767 µg/mL | binding result [7]: no binding
VHH 12.2 (VHH, llama VHH, Norwalk library; pHEN6, C-terminal His6 tag) VHH: DVQLQASGGGLVQAGGSLRLSCAASGSTISSYAMAWYRQAPGKRRELVAHISSGGSTNYADSVKGRFTISRDNAKNTVYLQMNSLKPEDTAVYYCNIYYGGDYYYTGVKPNPWGQGTQVTVSS | 1 ng/well | 0.8 µg/mL | – | – | – | – | 1 ng/well | 2.59 µg/mL | – | – | – | –
VHH 3.2 (VHH, llama VHH, MD2004 library; pHEN6, C-terminal His6 tag; also called clone 3.2) VHH: QVQLQESGGGLVQPGGSLRLSCAASESTPSINTMGWYRQAPGKERELVATITSGGMTNYADSVKGRFTISRDNGKNTVYLQMNSLEPGDTAVYYCNLKRRDLQARFGGYWGQGTQVTVSS | – | – | 0.5 ng/well | 2 ng/well | 1 ng/well | 0.5 ng/well | – | – | 0.5 ng/well | 0.917 µg/mL | 2.3 µg/mL | minimum concentration of VHH able to recognize 100 ng of VLP [15]: 0.5 ng/well; HAI titer, B Rh+ RBC [17]: 0.19 µg/mL; HAI titer, B Rh+ RBC [18]: 0.19 µg/mL; EC50 [22]: 0.641 µg/mL
VHH 1 (VHH, llama VHH, MD2004 (GII.4) library; pHEN6, C-terminal His6 tag; also called 1.1; clone 1) VHH: QVQLQQSGGGLVQAGGSLRLSCAASGLAFSSYAITWLRQAPGTEREFVALISGSGSSTYYADSVKGRFTISRNNAKNTVYLQMNSLKPEDTAVYYCTASEFLLHPPPPNQKYDYWGQGTQVTVSS | – | – | 0.25 ng/well | 0.5 ng/well | 0.5 ng/well | 1 ng/well | – | – | 0.25 ng/well | 2.01 µg/mL | 0.341 µg/mL | EC50 [22]: 0.85 µg/mL
VHH 11.2 (VHH, llama VHH, Norwalk library; pHEN6, C-terminal His6 tag; also called VHH 11.1) VHH: DVQLQASGGGLVQAGGSLRLSCAASTSRFSSYAMGWSRQAPGKQRELVASISSSGLTTNYADSVKGRFTISRDNAKNTVYLQMNSLKPEDTAVYYCKADGRRYSLNEYWGQGTQVTVSS | 1 ng/well | – | – | – | – | – | – | – | – | – | – | –
